The record followed here is patent US20060058505A1, “Nucleic acid and polypeptide linked to breast cancer and uses therefor” (priority 2001, published 2006).

To fix the notation:
T1: His-tagged N-terminal SH3 domain containing region of rasGAP^120 (Homo sapiens, UniProt P20936)
T1 construct: containing amino acids 1-356 which includes the full SH3 domain of rasGAP^120; made in house; host or cells: E. coli (DH5), IPTG induction; used as bacterial lysate
T1 sequence (P20936 1-356): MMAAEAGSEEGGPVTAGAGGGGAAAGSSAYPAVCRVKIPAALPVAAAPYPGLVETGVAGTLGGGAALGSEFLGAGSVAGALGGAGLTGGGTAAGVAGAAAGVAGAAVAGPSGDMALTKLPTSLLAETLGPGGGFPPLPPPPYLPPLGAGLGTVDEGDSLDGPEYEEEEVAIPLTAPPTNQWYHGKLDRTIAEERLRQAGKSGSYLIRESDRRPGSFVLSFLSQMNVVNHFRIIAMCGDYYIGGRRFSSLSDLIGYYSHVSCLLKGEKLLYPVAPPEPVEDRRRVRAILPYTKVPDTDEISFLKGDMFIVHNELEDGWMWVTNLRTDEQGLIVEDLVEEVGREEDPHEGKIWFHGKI

B1: δ-2a-N146: GST fusion of truncated G3BP-2a peptide including the N-terminal amino acids 1 to 146 (NTF2-like domain) (protein, UniProt Q9UN86 1-146, looked up, fragment)
chain: MVMEKPSPLLVGREFVRQYYTLLNKAPEYLHRFYGRNSSYVHGGVDASGKPQEAVYGQNDIHHKVLSLNFSECHTKIRHVDAHATLSDGVVVQVMGLLSNSGQPERKFMQTFVLAPEGSVPNKFYVHNDMFRYEDEVFGDSEPELD
modifications: isoform 2a GST fusion
B2: δ-2a-N205: GST fusion of truncated G3BP-2a peptide; number is the amino acid at the truncation site (protein, UniProt Q9UN86 1-205, looked up, fragment)
chain: MVMEKPSPLLVGREFVRQYYTLLNKAPEYLHRFYGRNSSYVHGGVDASGKPQEAVYGQNDIHHKVLSLNFSECHTKIRHVDAHATLSDGVVVQVMGLLSNSGQPERKFMQTFVLAPEGSVPNKFYVHNDMFRYEDEVFGDSEPELDEESEDEVEEEQEERQPSPEPVQENANSGYYEAHPVTNGIEEPLEESSHEPEPEPESETK
modifications: isoform 2a GST fusion
notes: GST fusion of truncated G3BP-2a peptide; number is the amino acid at the truncation site
B3: δ-2a-N329: GST fusion of truncated G3BP-2a peptide; number is the amino acid at the truncation site (protein, UniProt Q9UN86 1-329, looked up, fragment)
chain: MVMEKPSPLLVGREFVRQYYTLLNKAPEYLHRFYGRNSSYVHGGVDASGKPQEAVYGQNDIHHKVLSLNFSECHTKIRHVDAHATLSDGVVVQVMGLLSNSGQPERKFMQTFVLAPEGSVPNKFYVHNDMFRYEDEVFGDSEPELDEESEDEVEEEQEERQPSPEPVQENANSGYYEAHPVTNGIEEPLEESSHEPEPEPESETKTEELKPQVEEKNLEELEEKSTTPPPAEPVSLPQEPPKAFSWASVTSKNLPPSGTVSSSGIPPHVKAPVSQPRVEAKPEVQSQPPRVREQRPRERPGFPPRGPRPGRGDMEQNDSDNRRIIRYPD
modifications: isoform 2a GST fusion
notes: as for B2
B4: full length G3BP-2a: full length G3BP-2a expressed as GST-fusion protein (protein)
chain: MVMEKPSPLLVGREFVRQYYTLLNKAPEYLHRFYGRNSSYVHGGVDASGKPQEAVYGQNDIHHKVLSLNFSECHTKIRHVDAHATLSDGVVVQVMGLLSNSGQPERKFMQTFVLAPEGSVPNKFYVHNDMFRYEDEVFGDSEPELDEESEDEVEEEQEERQPSPEPVQENANSGYYEAHPVTNGIEEPLEESSHEPEPEPESETKTEELKPQVEEKNLEELEEKSTTPPPAEPVSLPQEPPKAFSWASVTSKNLPPSGTVSSSGIPSHVKAPVSQPRVEAKPEVQSQPPRVREQRPRERPGFPPRGPRPGRGDMEQNDSDNRRIIRYPDSHQLFVGNLPHDIDENELKEFFMSFGNVVELRINTKGVGGKLPNFGFVVFDDSEPVQRILIAKPIMFRGEVRLNVEEKKTRAARERETRGGGDDRRDIRRNDRGPGGPRGIVGGGMMRDRDGRGPPPRGGMAQKLGSGRGTGQMEGRFTGQRR
modifications: left off: a dimerising Fc or GST
notes: full length G3BP-2a expressed as GST-fusion protein
B5: δ-2a-N257: GST fusion of truncated G3BP-2a peptide; number is the amino acid at the truncation site (protein, UniProt Q9UN86 1-257, looked up, fragment)
chain: MVMEKPSPLLVGREFVRQYYTLLNKAPEYLHRFYGRNSSYVHGGVDASGKPQEAVYGQNDIHHKVLSLNFSECHTKIRHVDAHATLSDGVVVQVMGLLSNSGQPERKFMQTFVLAPEGSVPNKFYVHNDMFRYEDEVFGDSEPELDEESEDEVEEEQEERQPSPEPVQENANSGYYEAHPVTNGIEEPLEESSHEPEPEPESETKTEELKPQVEEKNLEELEEKSTTPPPAEPVSLPQEPPKAFSWASVTSKNLPPS
modifications: isoform 2a GST fusion
notes: as for B2

The first experiment has as its target T1, His-tagged N-terminal SH3 domain containing region of rasGAP^120. Kind of experiment: bead binding assay of GST-G3BP peptides with Western detection by anti-His antibody. The settings on record: GST fusions bound to glutathione beads. From the text: However, the region within the G3BPs responsible for the observed interaction with rasGAP^120 has not been thoroughly investigated. Initially it was presumed that the interactions would be facilitated through proline rich motifs that are known to interact with SH3 domains (Lee et al. 1996). To further map the interactions between G3BPs and the SH3 domain of rasGAP^120 several GST-G3BP peptide fusions were expressed (FIG. 4) and probed in bead binding assays with His-tagged N-terminal rasGAP^120 peptides. The G3BP peptide constructs were designed to represent truncated proteins containing single or multiple domains as well as peptides that would contain isolated proline rich motifs (FIG. 4). In the assays GST-G3BP peptides are bound to glutathione beads and His-tagged N-terminal rasGAP^120 is added to the different constructs. Specific protein-protein interactions between the G3BP peptides and the SH3 domain of rasGAP^120 are detected by running the bound proteins on a Western blot and identifying His-tagged rasGAP^120 by probing with an anti-His antibody. […] No interactions were detected with the other domains of G3BP including the Acid-Rich domain, the RRM or the RGG-rich domain (FIG. 4).
Truncated cDNAs representing either N-terminal or C-Terminal sequences of G3BP-1 and G3BP-2a (FIG. 2) were subcloned into bacterial GST-fusion expression vectors (pGex, Pharmacia) so that the recombinant fusion proteins could be expressed and used in bead binding assays (see below) to identify the sub-domains of G3BP that interact with the SH3 domain of rasGAP^120. The vectors containing the recombinant fusion protein construct were transformed into competent DH5′ E. Coli and expressed by IPTG induction. To collect the recombinant proteins the cells were washed and resuspended in PBS and sonicated to release the fusion proteins.
The N-terminal domain of rasGAP^120 (kindly provided by Prof. I.G. Macara, University of Virginia) containing amino acids 1-356 which includes the full SH3 domain of rasGAP^120 was subcloned into proEX HT bacterial expression vector (Life Technologies) and expressed as described above.
Glutathione columns (Pharmacia) were blocked overnight at 4° C. in 1× binding buffer A (50 mM HEPES pH 7.4, 100 mM NaCl, 5 mM MgCl2, 50 mg/ml BSA, 1 mM DTT, 1 mM PMFS and protease inhibitors (Protease inhibitor cocktail, Roche Diagnostics, Australia). The following day the columns were washed twice with binding buffer A. Bacterial lysates containing either expressed GST alone or GST fusion proteins were diluted 1:1 with 2× binding buffer A and added to the equilibrated GST columns, the columns were gently rocked overnight at 4° C. To remove excess proteins the columns were washed twice in 1× binding buffer A. Bacterial lysates containing the His-tagged N-terminal of rasGAP^120 protein were combined with an equal volume of 2× binding buffer A containing 200 mg/ml BSA and 0.1% Tween. In addition to the high concentration of BSA, which is used to block non-specific protein-protein interactions, Ethidium bromide was added to a final concentration of 25 ng/ml to abrogate non-specific interactions caused by excess bacterial genomic DNA and bacterial RNA. This mix was then added to the pre-bound GST columns (above) and allowed to bind for 2 hrs at 4° C. The columns were then washed three times with binding buffer B (50 mM HEPES pH 7.4, 200 mM NaCl, 5 mM MgCl2, 1 mM DTT, 1 mM PMFS and protease inhibitors).
One μl of the GST beads complexed with proteins, as described above, was added to an equal volume of 2×PAGE loading dye, heated for 5 mins at 95° C. and loaded onto a 7.5% Polyacrylamide gel and run at 100V for 3 hours. The proteins were transferred to Nitrocellulose and probed with anti-His antibodies (Tetra-His antibody, Qiagen). Columns, which were bound with GST alone, were used as negative controls to ensure no non-specific His-tagged N-terminal rasGAP^120 remained associated with the columns. […]
Regarding “full length G3BP-1: full length G3BP-1 expressed as GST-fusion protein”, the “interaction with the N-terminal SH3 domain containing region of rasGAP^120” value is listed as “interact”. Still for that read-out and setting: under “δ-1-N229: GST fusion of truncated G3BP-1 peptide; number is the amino acid at the truncation site” stands “interact”. Same read-out and setting: under “δ-1-N309: GST fusion of truncated G3BP-1 peptide; number is the amino acid at the truncation site” stands “interact”; under B1, “interacted”; under B2, “interacted”. The same measure, in the same setting: for B3 the value was “interacted”; for B4, “interacted”. As for B5, the “interaction with the N-terminal SH3 domain containing region of rasGAP^120” value is recorded as “interacted”.

A further experiment relates to peripheral blood mononuclear cells (PBMC) from healthy individuals. The experiment can be described thus: CTL responses induced by DC in PBMC, tested in IFN-γ ELISPOT. It is filed as cell-based. The settings on record: after one (and two) round of stimulation, 2 separate donors. The method, then: The various peptides were evaluated for the generation of CTL responses induced by DC in peripheral blood mononuclear cells (PBMC) from healthy individuals and tested in ELISPOT (Gonzalez et al, 2000). T2 cells (target) pulsed with Peptide 1 or no peptide were labelled with ^51Cr and incubated with clone IH7 (effector) at various ratios. After 4 hours, ^51Cr released from lysed cells was measured and the percentage of specific lysis calculated with the formula: 100×(experimental release−spontaneous release)/(total release−spontaneous release). Total release was obtained with detergent lysis of labelled target.
Confirming this finding, we generated Peptide 1 specific CTL clones capable of identifying peptide-loaded targets in a classical chromium release assay (FIG. 11), the desired profile for an efficient anti-tumor response (Lopez and Hart, 2002), incorporated herein by reference. These clones will be instrumental in the evaluation of the expression of this antigen in cancer cells, allowing the formal evaluation of this molecule as a TAA.
KLPNFGFVV (Human) [Peptide 1]: the “CTL responses: IFN-γ producing peptide specific CD8+ lymphocytes” value is “Strong responses”.

The target of another experiment is T2, HLA-A*0201 molecule on T2 cells.
T2 construct: whole, on cells
The experiment can be described thus: T2 binding assay, HLA expression by flow cytometry.
Settings: not given
With KLPNFGFVV [Peptide 1 of G3BP-2 (KLPNFGFVV)], the binding result is recorded as “binds”.

In the case of IMFRGEVRL [Peptide 2 of G3BP-2 (IMFRGEVRL)], the binding result is on record as “binds”.

In another experiment the target is T3, HLA-A*0201 molecule (Homo sapiens, UniProt P04439, D140Y/D185E/D98H/E176V/E277Q/G131W/G231S/I119V/I121R/I166T/I218V/L300P/L318F/N151K/N90K/P208A/P217A/Q86G/Q94H/R138H/R169H/T345S).
T3 construct: endogenous in cells; host or cells: T2 cells
Kind of experiment: MHC/peptide binding assay (T2 binding assay). The settings on record: reference influenza MP 58-66 peptide.
Take IMFRGEVRL (human) [Peptide 2]: the “binding to the HLA-A*0201 molecule” value is given as “affinity equal to that of the control influenza MP 58-66 peptide”. The same measure, in the same setting: for KLPNFGFVV (Human) [Peptide 1] the value was “affinity equal to that of the control influenza MP 58-66 peptide”.
